Our source for the TRAM-34 sensitive whole-cell K+ current density values is PMC11050286.

The target in the assay is human calmodulin wild-type (pIRES-DsRed-HisB-cMyc-CaM WT) (human) (UniProt P0DP23).

In the case of “human SK4 R352D/R355D (from UniProt O15554 1-427) (natural protein)”, the TRAM-34 sensitive whole-cell K+ current density at +60 mV, HEK293T cells co-transfected with SK4 R352D/R355D and CaM WT, 0.1 uM Cai (not different from background) was 54 pA/pF.
